The values that follow come from patent US20240116985A1, “STAPLED PEPTIDES AND METHODS THEREOF” (priority 2020, published 2024).

Assay [1] addresses full-length beta-Catenin (Uniprot ID P35222) (Homo sapiens (Human)) (UniProt P35222). Briefly: fluorescence polarization competition; full-length beta-catenin, 5FAM-TCF4(10-53) probe displaced. A general note: Polarisation of emitted light reports the rotation of a fluorescent probe.
Target sequence in this assay (P35222 whole entry): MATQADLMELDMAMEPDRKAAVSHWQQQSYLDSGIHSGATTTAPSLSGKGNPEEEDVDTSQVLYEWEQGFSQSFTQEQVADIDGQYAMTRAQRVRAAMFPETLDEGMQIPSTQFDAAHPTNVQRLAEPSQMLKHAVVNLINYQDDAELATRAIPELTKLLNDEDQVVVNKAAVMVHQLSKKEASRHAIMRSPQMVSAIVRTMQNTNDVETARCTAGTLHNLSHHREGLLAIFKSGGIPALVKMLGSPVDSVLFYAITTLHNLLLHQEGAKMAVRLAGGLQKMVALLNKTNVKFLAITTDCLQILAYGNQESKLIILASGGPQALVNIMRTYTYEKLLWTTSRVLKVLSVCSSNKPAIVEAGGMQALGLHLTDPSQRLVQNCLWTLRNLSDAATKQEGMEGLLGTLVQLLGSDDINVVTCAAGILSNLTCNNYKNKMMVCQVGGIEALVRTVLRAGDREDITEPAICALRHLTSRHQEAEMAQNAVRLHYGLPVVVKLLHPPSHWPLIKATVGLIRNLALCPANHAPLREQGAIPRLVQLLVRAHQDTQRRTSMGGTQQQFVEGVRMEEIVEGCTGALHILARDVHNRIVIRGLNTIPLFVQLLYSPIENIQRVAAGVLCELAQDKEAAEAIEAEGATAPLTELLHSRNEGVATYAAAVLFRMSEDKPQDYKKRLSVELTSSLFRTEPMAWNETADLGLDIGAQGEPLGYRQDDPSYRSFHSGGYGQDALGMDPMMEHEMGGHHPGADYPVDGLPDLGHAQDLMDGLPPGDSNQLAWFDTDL
For assay [2] the target is unchanged. In words: fluorescence polarization competition; 10 nM full-length beta-catenin, competitor 10 nM 5FAM-TCF4(10-53).
Target sequence in this assay (P35222 whole entry): as above
The target is the same in assay [3]. Briefly: fluorescence polarization competition; full-length beta-catenin with 5FAM-labeled TCF4 (residues 10-53) probe as competitor.
Target sequence in this assay (P35222 whole entry): as above
For assay [4] the target is unchanged. Briefly: fluorescence polarization competition; 10 nM full-length beta-catenin + 10 nM 5FAM-TCF4(10-53) probe, peptide titrated 10 uM to 5 nM.
Target sequence in this assay (P35222 2-781 limits assumed): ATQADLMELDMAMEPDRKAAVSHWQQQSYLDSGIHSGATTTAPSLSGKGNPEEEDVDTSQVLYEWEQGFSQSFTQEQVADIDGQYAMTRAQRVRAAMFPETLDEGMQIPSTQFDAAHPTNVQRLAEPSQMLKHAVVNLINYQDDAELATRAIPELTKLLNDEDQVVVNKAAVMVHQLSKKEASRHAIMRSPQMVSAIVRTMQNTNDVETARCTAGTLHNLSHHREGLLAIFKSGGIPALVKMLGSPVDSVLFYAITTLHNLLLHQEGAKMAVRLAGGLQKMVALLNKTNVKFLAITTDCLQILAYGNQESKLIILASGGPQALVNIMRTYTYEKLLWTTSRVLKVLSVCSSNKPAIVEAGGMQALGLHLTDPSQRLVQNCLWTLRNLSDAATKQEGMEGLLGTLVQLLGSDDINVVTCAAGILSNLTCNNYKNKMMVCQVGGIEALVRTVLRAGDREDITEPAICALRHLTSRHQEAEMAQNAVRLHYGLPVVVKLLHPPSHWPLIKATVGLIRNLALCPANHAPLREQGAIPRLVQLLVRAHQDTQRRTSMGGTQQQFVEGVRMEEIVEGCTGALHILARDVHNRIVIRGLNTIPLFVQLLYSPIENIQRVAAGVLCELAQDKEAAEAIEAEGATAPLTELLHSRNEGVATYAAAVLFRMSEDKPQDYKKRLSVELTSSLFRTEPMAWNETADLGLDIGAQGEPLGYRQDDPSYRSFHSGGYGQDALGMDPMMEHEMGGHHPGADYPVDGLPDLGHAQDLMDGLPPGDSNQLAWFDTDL
For assay [5] the target is unchanged. Briefly: fluorescence polarization competition; 10 nM full-length beta-catenin + 10 nM 5FAM-TCF4(10-53) probe, peptide titrated.
Target sequence in this assay (P35222 2-781 limits assumed): as above
The target is the same in assay [6]. In words: fluorescence polarization competition; full-length beta-catenin + 5FAM-TCF4(10-53) probe.
Target sequence in this assay (P35222 whole entry): as the sequence (P35222 whole entry) above
The target is the same in assay [7]. Briefly: fluorescence polarization competition against 5FAM-TCF4(10-53) on full-length beta-catenin.
Target sequence in this assay (P35222 whole entry): as above
Assay [8] has the same target. Briefly: fluorescence polarization competition against 5FAM-TCF4(10-53), full-length beta-catenin.
Target sequence in this assay (P35222 whole entry): as above

Starred links: 1 amine or outer side, 2 acyl side, 3 side chain; linkers in the order of their positions; H or OH if unused. Positions of bridges follow the written chain, without caps; N, C: chain ends. Non-standard residues stand in square brackets, D forms with d. Primed or numbered codes have the meaning given here. *: point of attachment. PyrS2″ = (S)-3-amino-1-((pent-4-en-1-yloxy)carbonyl)pyrrolidine-3-carboxylic acid (stapling residue), C=CCCCOC(=O)N1CC[C@@](N[*:1])(C(=O)[*:2])C1; SeN″ = (S)-5-(((allyloxy)carbonyl)(methyl)amino)-2-amino-2-methylpentanoic acid (stapling residue), C=CCOC(=O)N(C)CCC[C@](C)(N[*:1])C(=O)[*:2]; B5(4) = 2,2-bis(4-pentenyl)glycine = 2-amino-2-(pent-4-en-1-yl)hept-6-enoic acid (stitching residue), C=CCCCC(CCCC=C)(N[*:1])C(=O)[*:2]; B5(5) = 2,2-bis(4-pentenyl)glycine, 2-amino-2-(pent-4-en-1-yl)hept-6-enoic acid (stitching residue), C=CCCCC(CCCC=C)(N[*:1])C(=O)[*:2]; TfeGA = (S)-2-amino-3-((carboxymethyl)(2,2,2-trifluoroethyl)amino)propanoic acid, O=C([C@H](CN(CC(=O)[*:3])CC(F)(F)F)N[*:1])[*:2]; B5(3) = 2,2-bis(4-pentenyl)glycine (stitching residue), C=CCCCC(CCCC=C)(N[*:1])C(=O)[*:2]; B5 = 2-amino-2-(pent-4-en-1-yl)hept-6-enoic acid, C=CCCCC(CCCC=C)(N[*:1])C(=O)[*:2]; Phe(3-CF3) = N[C@@H](Cc1cccc(C(F)(F)F)c1)C(=O)O; Phe(3-COOH) = N[C@@H](Cc1cccc(C(=O)O)c1)C(=O)O; Phe(2-Cl) = N[C@@H](Cc1ccccc1Cl)C(=O)O; Phe(3-F) = N[C@@H](Cc1cccc(F)c1)C(=O)O; Phe(3-Me) = Cc1cccc(C[C@H](N)C(=O)O)c1; 1Nal = N[C@@H](Cc1cccc2ccccc12)C(=O)O; 2Nal = N[C@@H](Cc1ccc2ccccc2c1)C(=O)O; Ala(cPent) = N[C@@H](CC1CCCC1)C(=O)O; Bta = N[C@@H](Cc1csc2ccccc12)C(=O)O; αAllylPro = C=CC[C@@]1(C(=O)O)CCCN1; tBuAla = CC(C)(C)C[C@H](N)C(=O)O; 2Pal = N[C@@H](Cc1ccccn1)C(=O)O; 2Thi = N[C@@H](Cc1cccs1)C(=O)O; 3Thi = N[C@@H](Cc1ccsc1)C(=O)O; S8 = C=CCCCCCC[C@](C)(N)C(=O)O; Butoxycarbonyl = CCCCOC(=O)*; hSer = N[C@@H](CCO)C(=O)O; Nle = CCCC[C@H](N)C(=O)O

The IC50 is the concentration at which inhibition is half-maximal. Take Ac-[αAllylPro]S[tBuAla][B5(5)]DDAAFL[PyrS2″][3Thi][Bta]Q-NH2 (staple 1-4, 4-11) [Ac-PL3-Ser-Npg-B5-Asp-Asp-Ala-Ala-Phe-Leu-PyrS2-3Thi-BztA-Gln-NH2]: the IC50 in assay [1] was determined as 550 nM.
The molecule Ac-[αAllylPro]D[tBuAla][B5(3)]NDAAFN[PyrS2″][3Thi][Bta]Q-NH2 (staple 1-4, 4-11) [Ac-PL3-Asp-Npg-B5-Asn-Asp-Ala-Ala-Phe-Asn-PyrS2-3Thi-BztA-Gln-NH2] came in with an IC50 in assay [1] of 32 nM.
The same measure, in the same setting: the figure for Ac-[αAllylPro]D[tBuAla][B5(5)]SDAAFL[PyrS2″][3Thi][Bta]Q-NH2 (staple 1-4, 4-11) [Ac-PL3-Asp-Npg-B5-Ser-Asp-Ala-Ala-Phe-Leu-PyrS2-3Thi-BztA-Gln-NH2] is 479 nM.

B1: I-386 (peptide)
peptide: Ac-[αAllylPro]DA[B5]DEAA[2Pal]V[S8]F[Bta]Q-NH2
modifications: staple 1-4, 4-11; not fully specified; printed as Ac-PL3-Asp-Ala-B5-Asp-Glu-Ala-Ala-2pyrA-Val-S8-Phe-BztA-Gln-NH2
One may read the EC50 as the concentration that produces a half-maximal response. The molecule B1 gave an EC50 in assay [2] of 5000 nM. Moreover, the IC50 in assay [3] was determined as 5000 nM.
Take Ac-[αAllylPro]D[tBuAla][B5(5)][hSer]DAAFN[PyrS2″][3Thi][Bta]Q-NH2 (staple 1-4, 4-11) [Ac-PL3-Asp-Npg-B5-Hse-Asp-Ala-Ala-Phe-Asn-PyrS2-3Thi-BztA-Gln-NH2]: the IC50 in assay [1] is 116 nM.
In the case of Ac-[αAllylPro]D[tBuAla][B5(5)]LDAAFN[PyrS2″][3Thi][Bta]Q-NH2 (staple 1-4, 4-11) [Ac-PL3-Asp-Npg-B5-Leu-Asp-Ala-Ala-Phe-Asn-PyrS2-3Thi-BztA-Gln-NH2], the 50% inhibitory concentration (IC50) in assay [1] is 8660 nM.
Still for that read-out and setting: for Ac-[αAllylPro]D[tBuAla][B5(5)]QDAAFN[PyrS2″][3Thi][Bta]Q-NH2 (staple 1-4, 4-11) [Ac-PL3-Asp-Npg-B5-Gln-Asp-Ala-Ala-Phe-Asn-PyrS2-3Thi-BztA-Gln-NH2] the value was 56 nM.
In the case of Ac-[αAllylPro]N[tBuAla][B5(5)]DHAAFL[PyrS2″]F[Bta]Q-NH2 (staple 1-4, 4-11) [I-2442], in assay [4], the IC50 stood at 282 nM.
For the molecule Ac-[αAllylPro]DA[B5(4)]D[2Thi]AAFV[S8][Phe(3-F)][Bta]Q-NH2 (staple 1-4, 4-11) [I-402], the EC50 in assay [5] was determined as 5000 nM. Also, the IC50 in assay [3] came to 5000 nM.
Consider Ac-[αAllylPro]DI[B5(3)]DEAAFQ[S8]F[Bta]-NH2 (staple 1-4, 4-11; also: staple isomer composition, later eluting HPLC peak) [I-409], for which the 50% effective concentration (EC50) in assay [5] was 70 nM. Further, the IC50 in assay [3] is 70 nM.
For the molecule Ac-[αAllylPro]DA[B5(4)]DEAA[2Thi]Q[S8][Phe(3-F)][Bta]Q-NH2 (staple 1-4, 4-11) [I-401], the EC50 in assay [5] came out at 134 nM. The molecule also returned an IC50 in assay [3] of 134 nM.
In assay [2], Ac-[αAllylPro]DA[B5]DEAA[Ala(cPent)]V[S8]F[Bta]Q-NH2 (staple 1-4, 4-11) [I-392] gave an EC50 of 5000 nM. The IC50 in assay [3] came to 5000 nM.
For Ac-[αAllylPro]D[tBuAla][B5(5)][hSer]DAAFL[PyrS2″][3Thi][Bta]Q-NH2 (staple 1-4, 4-11) [Ac-PL3-Asp-Npg-B5-Hse-Asp-Ala-Ala-Phe-Leu-PyrS2-3Thi-BztA-Gln-NH2], the IC50 in assay [1] is 216 nM.
Consider Ac-[αAllylPro]Q[tBuAla][B5(5)]DDAAFL[PyrS2″][3Thi][Bta]Q-NH2 (staple 1-4, 4-11) [Ac-PL3-Gln-Npg-B5-Asp-Asp-Ala-Ala-Phe-Leu-PyrS2-3Thi-BztA-Gln-NH2], for which the IC50 in assay [1] worked out at 305 nM.
Regarding Ac-[αAllylPro]N[tBuAla][B5(3)]DDAAFL[PyrS2″][3Thi][Bta]Q-NH2 (staple 1-4, 4-11) [Ac-PL3-Asn-Npg-B5-Asp-Asp-Ala-Ala-Phe-Leu-PyrS2-3Thi-BztA-Gln-NH2], the IC50 in assay [1] turned out to be 14 nM.

B2: I-1272 (peptide)
peptide: Ac-[αAllylPro]D[tBuAla][B5(3)]DTAAFT[PyrS2″]F[1Nal]S-NH2
modifications: staple 1-4; staple 4-11 (inferred); not fully specified; printed as Ac-PL3-Asp-Npg-B5-Asp-Thr-Ala-Ala-Phe-Thr-PyrS2-Phe-1NapA-Ser-NH2
On to B2, for which, in assay [6], the EC50 was 331 nM. The molecule further gave an IC50 in assay [7] of 331 nM.
Regarding Ac-[αAllylPro]DA[B5]DEAAFV[S8][Ala(cPent)][Bta]Q-NH2 (staple 1-4, 4-11) [I-393], the EC50 in assay [2] amounted to 1950 nM. In addition, the IC50 in assay [3] came to 1950 nM.
With Ac-[αAllylPro]D[tBuAla][B5(5)]QDAAFL[PyrS2″][3Thi][Bta]Q-NH2 (staple 1-4, 4-11) [Ac-PL3-Asp-Npg-B5-Gln-Asp-Ala-Ala-Phe-Leu-PyrS2-3Thi-BztA-Gln-NH2], in assay [1], the IC50 is 115 nM.
In the case of Ac-[αAllylPro]Q[tBuAla][B5(5)]DDAAFN[PyrS2″][3Thi][Bta]Q-NH2 (staple 1-4, 4-11) [Ac-PL3-Gln-Npg-B5-Asp-Asp-Ala-Ala-Phe-Asn-PyrS2-3Thi-BztA-Gln-NH2], the IC50 in assay [1] was 389 nM.
Ac-[αAllylPro]DA[B5(4)]DEAAFV[S8][Phe(3-Me)][Bta]Q-NH2 (staple 1-4, 4-11) [I-395] had an EC50 in assay [2] of 5000 nM. Further, the IC50 in assay [3] is 5000 nM.
On to Ac-[αAllylPro]DA[B5(4)]D[TfeGA]AA[Phe(3-Me)]Q[S8][Phe(3-F)][Bta]Q-NH2 (staple 1-4, 4-11) [I-404], for which the EC50 in assay [5] is 1850 nM. In assay [3], the IC50 was 1850 nM.
Regarding Ac-[αAllylPro]DI[B5(3)]DEAAFQ[S8]F[Bta]-NH2 (staple 1-4, 4-11; also: staple isomer composition, earlier eluting HPLC peak) [I-408], the EC50 in assay [5] stood at 120 nM. The IC50 in assay [3] worked out at 120 nM.

B3: I-1270 (peptide)
peptide: Ac-[αAllylPro]D[tBuAla][B5(3)]DTAAFT[PyrS2″][2Nal][Bta]S-NH2
modifications: staple 1-4; staple 4-11 (inferred); not fully specified; printed as Ac-PL3-Asp-Npg-B5-Asp-Thr-Ala-Ala-Phe-Thr-PyrS2-2NapA-BztA-Ser-NH2
As to B3, the EC50 in assay [6] is 3700 nM. This molecule also registered an IC50 in assay [7] of 3700 nM.
Turning to Ac-[αAllylPro]D[Nle][B5(3)]DEAAFA[S8]F[Bta]Q-NH2 (staple 1-4, 4-11) [I-411], the EC50 in assay [5] is 189 nM. In assay [3], this molecule gave an IC50 of 189 nM.
Take Butoxycarbonyl-[αAllylPro]D[tBuAla][B5(4)]D[Phe(3-COOH)]AAFL[PyrS2″][Phe(2-Cl)][Bta]A-NH2 (staple 1-4, 4-11) [I-2304]: the IC50 in assay [8] was 511 nM.
Turning to Ac-[αAllylPro]DA[B5(3)]D[TfeGA]AA[Phe(3-Me)]Q[SeN″][Phe(3-F)][Bta]Q-NH2 (staple 1-4, 4-11) [I-405], the EC50 in assay [5] is 3820 nM. The same molecule gave an IC50 in assay [3] of 3820 nM.

B4: I-1271 (peptide)
peptide: Ac-[αAllylPro]D[tBuAla][B5(3)]DTAAFT[PyrS2″][Phe(3-CF3)][Bta]S-NH2
modifications: staple 1-4; staple 4-11 (inferred); not fully specified; printed as Ac-PL3-Asp-Npg-B5-Asp-Thr-Ala-Ala-Phe-Thr-PyrS2-3F3MeF-BztA-Ser-NH2
Regarding B4, the EC50 in assay [6] came out at 682 nM. Further, in assay [7], the IC50 is 682 nM.
Molecule Ac-[αAllylPro]S[tBuAla][B5(5)]DDAAFN[PyrS2″][3Thi][Bta]Q-NH2 (staple 1-4, 4-11) [Ac-PL3-Ser-Npg-B5-Asp-Asp-Ala-Ala-Phe-Asn-PyrS2-3Thi-BztA-Gln-NH2] gave an IC50 in assay [1] of 511 nM.
For Ac-[αAllylPro]D[tBuAla][B5(3)]NDAAFL[PyrS2″][3Thi][Bta]Q-NH2 (staple 1-4, 4-11) [Ac-PL3-Asp-Npg-B5-Asn-Asp-Ala-Ala-Phe-Leu-PyrS2-3Thi-BztA-Gln-NH2], the IC50 in assay [1] was 40 nM.
The molecule Ac-[αAllylPro]D[tBuAla][B5(5)]SDAAFN[PyrS2″][3Thi][Bta]Q-NH2 (staple 1-4, 4-11) [Ac-PL3-Asp-Npg-B5-Ser-Asp-Ala-Ala-Phe-Asn-PyrS2-3Thi-BztA-Gln-NH2] came in with an IC50 in assay [1] of 349 nM.

B5: I-387 (peptide)
peptide: Ac-[αAllylPro]DA[B5]DEAA[2Pal]V[S8]F[Bta]Q-NH2
modifications: staple 1-4, 4-11; not fully specified; printed as Ac-PL3-Asp-Ala-B5-Asp-Glu-Ala-Ala-2pyrA-Val-S8-Phe-BztA-Gln-NH2
For B5, the EC50 in assay [2] is 2620 nM. The molecule also came in with an IC50 in assay [3] of 2620 nM.
